Experimental data taken from patent publication US20240025997A1 (NGM BIOPHARMACEUTICALS, published 2024).
Substitutions are numbered along the chain they refer to. Each block holds one binder with its values, some of them ahead of it.

What was measured:
soluble human ILT2-ECD [1] = target: T1, soluble human ILT2-ECD (human, UniProt Q8NHL6 24-461); test: SPR (Biacore), antibody captured on Protein A chip, soluble ILT-ECD injected, 25 C, low resolution parameters
T1 construct: also called LILRB1 extracellular domain
Description: (§1) The binding affinities of anti-ILT2 and anti-ILT4 antibodies were measured using a Biacore system (GE Healthcare LifeSciences). Equilibrium dissociation constant (KD) measurements were carried out with purified antibodies to evaluate their binding to human ILT2, human ILT4, and rhesus ILT2. Briefly, purified anti-ILT2 antibody 27F9, anti-ILT4 antibodies 47C8 and 48A5, and anti-ILT2/ILT4 antibodies 47H6, 51A1, 64A12, 73C4, and 73D1 were captured on a Sensor Chip Protein A (GE HealthCare). The surface of the Biacore Sensor Chip Protein A consists of a carboxymethylated dextran matrix with a recombinant Protein A variant covalently attached. Soluble human ILT2-ECD, human ILT4-ECD, or rhesus ILT2-ECD were injected at a flow rate of 30 μL/min at 25° C. The ILT2 or ILT4 proteins were used at concentrations ranging from 1.6-200 nM in PBS-P buffer with 2 fold dilutions. Kinetic data were collected over time and fit using the simultaneous global fit equation to yield affinity constants (KD values) for each antibody.

soluble human ILT4-ECD [2] = target: T2, soluble human ILT4-ECD (human, UniProt Q8N423 22-460); test: as above
T2 construct: also called LILRB2 extracellular domain
Description: as §1

soluble human ILT2-ECD [3] = target: T1, soluble human ILT2-ECD; test: SPR (Biacore), antibody captured on Protein A chip, soluble ILT-ECD injected (1.6-200 nM), 25 C
Description: as §1

soluble human ILT4-ECD [4] = target: T2, soluble human ILT4-ECD; test: as above
Description: as §1

soluble human ILT2-ECD [5] = target: T1, soluble human ILT2-ECD; test: SPR (Biacore) as described in Example 3
Description: as §1
(§2) The binding affinities of the humanized antibodies to human ILT2 and human ILT4 were measured using a Biacore system as described herein. The binding affinities of antibodies Hz47H6.v2, Hz64A12, and Hz73D1.v1 are shown in Table 11 as compared with the parental antibodies.

soluble human ILT4-ECD [6] = target: T2, soluble human ILT4-ECD; test: SPR (Biacore) as described in Example 3
Description: as §1, §2

[7] = target: T3, cynomolgus monkey ILT2 on cells (cynomolgus monkey); test: flow cytometry, fluorescently labelled antibody on CD14+ monocytes of cyno PBMC, donor Cyno 1, geometric MFI
T3 construct: also called cyno ILT2; ILT2 on cyno CD14+ monocytes
Description: (§3) The binding of anti-ILT2/ILT4 antibodies to monocytes was evaluated. The binding of exemplary anti-ILT2/ILT4 antibody 73D1 and the humanized version Hz73D1.v1 to the CD14+ monocyte population of human and cyno PBMC were determined by flow cytometry analysis. Briefly, human or cyno PBMCs (from 2 donors each) were thawed, washed in media (RPMI, 10% FBS, L-glutamine, pen/strep), and resuspended in fresh media. PBMCs were stained with a cocktail of labeled antibodies to differentiate between the different cell types. 1×10⁶ cells/well were stained with fluorescently-labelled 73D1 or Hz73D1.v1 antibody and incubated on ice. The cells were washed with ice-cold reagents and immediately analyzed by flow cytometry. The geometric mean fluorescence intensity for CD14+ monocytes was calculated for each sample. […] For example, the 50% effective concentration (EC₅₀) of Hz73D1.v1 was 8.8 nM with human monocytes and 1.8 nM with cyno monocytes.

[8] = target: T3, cynomolgus monkey ILT2 on cells; test: flow cytometry, fluorescently labelled antibody on CD14+ monocytes of cyno PBMC, donor Cyno 2, geometric MFI
Description: as §3

human ILT4 on cells = target: T4, human ILT4 on cells (human, UniProt Q8N423 22-597); test: flow cytometry, fluorescently labelled antibody on immune cell subsets of PBMC / red-cell-depleted whole blood
T4 construct: also called LILRB2; human ILT4 expressed on 293T cells
Description: Flow cytometry analysis of blood immune cells was performed on human and cyno PBMC and whole blood. PBMC were prepared from a leukopak (Allcells Inc.) by centrifugation through ficoll, washing with PBS and freezing in cryopreservation buffer in liquid nitrogen until use. Whole blood (Allcells Inc.) was obtained fresh and red blood cells (RBC) depleted using ammonium chloride RBC lysing solution (Biolegend). PBMC or whole blood samples were stained with a fluorescently labeled antibody panel to distinguish various immune subsets (monocytes, B cells, NK cells, CD4+ and CD8+ T cells, neutrophils and eosinophils). Samples were further stained with fluorescently labeled isotype, 27F9 (ILT2 specific), 48A5 (ILT4 specific), 73D1, and Hz73D1.v1. The number of ILT2 and ILT4 molecules per cell of each immune subset was estimated by incubation with Quantum Simply Cellular microspheres followed by flow cytometry analysis.

soluble human ILT2-ECD [9] = target: T1, soluble human ILT2-ECD; test: SPR (Biacore) as described in Example 3, low resolution parameters
Description: as §1, §2

soluble human ILT4-ECD [10] = target: T2, soluble human ILT4-ECD; test: as above
Description: as §1, §2

T1 sequence (Q8NHL6 24-461): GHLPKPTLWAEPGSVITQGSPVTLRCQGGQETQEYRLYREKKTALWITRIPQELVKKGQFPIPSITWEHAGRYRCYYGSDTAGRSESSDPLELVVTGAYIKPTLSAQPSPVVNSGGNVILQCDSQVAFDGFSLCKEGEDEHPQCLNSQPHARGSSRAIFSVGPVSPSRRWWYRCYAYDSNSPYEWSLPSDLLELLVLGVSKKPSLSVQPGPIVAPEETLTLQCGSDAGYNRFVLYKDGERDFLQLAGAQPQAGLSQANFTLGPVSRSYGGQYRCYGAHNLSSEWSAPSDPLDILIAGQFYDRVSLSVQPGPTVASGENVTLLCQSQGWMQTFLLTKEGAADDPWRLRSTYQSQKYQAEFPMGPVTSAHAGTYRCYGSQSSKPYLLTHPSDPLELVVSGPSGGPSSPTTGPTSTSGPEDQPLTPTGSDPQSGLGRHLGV
T2 sequence (Q8N423 other isoform, or with tags, fused parts or gaps): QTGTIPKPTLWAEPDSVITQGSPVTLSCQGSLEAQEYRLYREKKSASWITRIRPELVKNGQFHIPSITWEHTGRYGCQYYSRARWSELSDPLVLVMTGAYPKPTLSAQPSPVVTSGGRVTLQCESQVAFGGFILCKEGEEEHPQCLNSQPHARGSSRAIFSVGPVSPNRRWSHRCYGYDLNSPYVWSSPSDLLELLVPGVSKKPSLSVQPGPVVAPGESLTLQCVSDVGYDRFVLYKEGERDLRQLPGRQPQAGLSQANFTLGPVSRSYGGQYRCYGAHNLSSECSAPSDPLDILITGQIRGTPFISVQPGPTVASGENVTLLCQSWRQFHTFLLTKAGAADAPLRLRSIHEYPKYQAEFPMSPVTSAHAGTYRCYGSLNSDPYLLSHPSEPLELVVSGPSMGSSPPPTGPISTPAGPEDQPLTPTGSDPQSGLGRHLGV
T3 sequence (chain, as listed by the source): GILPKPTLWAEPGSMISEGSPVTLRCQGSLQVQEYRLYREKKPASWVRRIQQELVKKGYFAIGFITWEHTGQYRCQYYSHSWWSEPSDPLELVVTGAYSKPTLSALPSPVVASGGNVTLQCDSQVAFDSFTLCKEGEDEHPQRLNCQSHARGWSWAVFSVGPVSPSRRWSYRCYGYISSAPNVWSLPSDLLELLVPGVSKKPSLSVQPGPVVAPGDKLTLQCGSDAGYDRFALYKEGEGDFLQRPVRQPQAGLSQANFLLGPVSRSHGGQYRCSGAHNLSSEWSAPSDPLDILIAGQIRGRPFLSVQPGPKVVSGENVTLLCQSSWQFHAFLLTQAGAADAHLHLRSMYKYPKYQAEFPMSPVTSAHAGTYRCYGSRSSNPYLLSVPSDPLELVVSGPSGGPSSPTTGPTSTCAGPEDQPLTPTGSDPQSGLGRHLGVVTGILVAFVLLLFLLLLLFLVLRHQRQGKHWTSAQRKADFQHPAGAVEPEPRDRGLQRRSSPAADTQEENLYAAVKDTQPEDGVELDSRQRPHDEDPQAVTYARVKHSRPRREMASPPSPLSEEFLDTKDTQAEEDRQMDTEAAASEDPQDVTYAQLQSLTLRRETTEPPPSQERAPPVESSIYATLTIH
T4 sequence (Q8N423 other isoform, or with tags, fused parts or gaps): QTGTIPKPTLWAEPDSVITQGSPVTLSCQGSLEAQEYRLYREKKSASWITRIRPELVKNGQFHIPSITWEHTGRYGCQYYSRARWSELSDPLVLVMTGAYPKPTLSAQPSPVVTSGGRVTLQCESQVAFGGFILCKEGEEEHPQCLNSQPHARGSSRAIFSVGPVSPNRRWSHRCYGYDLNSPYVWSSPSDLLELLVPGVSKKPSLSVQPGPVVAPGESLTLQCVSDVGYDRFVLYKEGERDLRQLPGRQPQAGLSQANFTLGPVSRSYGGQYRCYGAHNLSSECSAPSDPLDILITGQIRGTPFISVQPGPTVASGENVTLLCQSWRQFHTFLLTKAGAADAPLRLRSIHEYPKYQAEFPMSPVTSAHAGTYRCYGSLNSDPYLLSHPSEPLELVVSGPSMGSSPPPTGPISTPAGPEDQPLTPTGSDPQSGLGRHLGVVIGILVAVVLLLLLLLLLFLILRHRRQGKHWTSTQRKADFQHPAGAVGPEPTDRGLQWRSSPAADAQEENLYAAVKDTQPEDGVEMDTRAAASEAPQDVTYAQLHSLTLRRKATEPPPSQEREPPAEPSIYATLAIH

B1: anti-ILT2/ILT4 antibody 73C4 (antibody, V domains shown)
VH: AVQLQQSGPELVKPGASVKISCKASGYTFTDYYMNWVKQSHGKSLEWIGNVNPNNGGTSYNQKFKGKATLTVDKSSSTAYMELRSLTSEDSAVYYCARREIYFYGTIYYYAMDYWGQGTSVTVSS
VL: DIVLTQSPASLAVSLGQRATISCRASESVDYYGNSFMYWYQQKPGRPPNLLIYFASNLESGVPARFSGSGSRTDFTLTIDPVEADDAATYYCQQNNEDPWTFGGGTKLEIK
notes: Mouse hybridoma antibody
- Kd (soluble human ILT2-ECD [1]): < 0.1 nM
- koff (soluble human ILT2-ECD [1]): ~1e-05 s⁻¹
- kon (soluble human ILT2-ECD [1]): 31000 M⁻¹ s⁻¹
- Kd (soluble human ILT4-ECD [2]): < 0.1 nM
- koff (soluble human ILT4-ECD [2]): ~1e-05 s⁻¹
- kon (soluble human ILT4-ECD [2]): 97000 M⁻¹ s⁻¹

B2: anti-ILT2/ILT4 antibody 51A1 (antibody, V domains shown)
VH: EVQLVESGGGLVQPKGSLKLSCAASGFTFNTYAMHWVRQAPGKGLEWVARIRSKSSNYATYYADSVKDRFTISRDDSQSMLYLQMNNLKTEDTAMYYCVRDGIYYYGTMYYYAMDYWGQGTSVTVSS
VL: B1 VL with D1N, R46Q, N49K, D85A, T89S
notes: Mouse hybridoma antibody
- Kd (soluble human ILT2-ECD [3]): 5.8 nM
- koff (soluble human ILT2-ECD [3]): 0.00022 s⁻¹
- kon (soluble human ILT2-ECD [3]): 39000 M⁻¹ s⁻¹
- Kd (soluble human ILT4-ECD [4]): 0.2 nM
- koff (soluble human ILT4-ECD [4]): 1.4e-05 s⁻¹
- kon (soluble human ILT4-ECD [4]): 68000 M⁻¹ s⁻¹

B4: anti-ILT2/ILT4 antibody 64A12 (antibody, V domains shown)
VH: B2 VH with G107D
VL: B1 VL with D1N, M37I, R46Q, N49K, D85A, T89S
notes: Mouse hybridoma antibody
- Kd (soluble human ILT2-ECD [9]): < 0.1 nM
- koff (soluble human ILT2-ECD [9]): ~1e-05 s⁻¹
- kon (soluble human ILT2-ECD [9]): 20000 M⁻¹ s⁻¹
- Kd (soluble human ILT4-ECD [10]): < 0.1 nM
- koff (soluble human ILT4-ECD [10]): ~1e-05 s⁻¹
- kon (soluble human ILT4-ECD [10]): 82000 M⁻¹ s⁻¹
- Kd (soluble human ILT2-ECD [1]): < 0.1 nM
- koff (soluble human ILT2-ECD [1]): ~1e-05 s⁻¹
- kon (soluble human ILT2-ECD [1]): 20000 M⁻¹ s⁻¹
- Kd (soluble human ILT4-ECD [2]): < 0.1 nM
- koff (soluble human ILT4-ECD [2]): ~1e-05 s⁻¹
- kon (soluble human ILT4-ECD [2]): 82000 M⁻¹ s⁻¹

B5: anti-ILT2/ILT4 antibody 47H6 (antibody, V domains shown)
VH: EVQLQQSGPELVKPGASVKISCKASGYTFTDYYMNWVKQSHGKSLEWIGDFNPNNGGTTYNQKFEGKATLTVDKSSNTAYMDLRSLTSEDSAVYYCARGRFYYGSLYSFDYWGQGTTLTVSS
VL: DIQMTQSPASLSASVGETVTITCRASGNIHNYLAWYQQKQGKSPHLLVYNAKTLADGVPSRFSGSGSGTQYSLKINNLQPEDFGSYYCQHFWTSITFGAGTKLDLK
notes: Mouse hybridoma antibody
- Kd (soluble human ILT2-ECD [5]): 0.2 nM
- koff (soluble human ILT2-ECD [5]): 2.1e-05 s⁻¹
- kon (soluble human ILT2-ECD [5]): 100000 M⁻¹ s⁻¹
- Kd (soluble human ILT4-ECD [6]): 0.2 nM
- koff (soluble human ILT4-ECD [6]): 2.1e-05 s⁻¹
- kon (soluble human ILT4-ECD [6]): 100000 M⁻¹ s⁻¹
- Kd (soluble human ILT2-ECD [3]): 2.1 nM
- koff (soluble human ILT2-ECD [3]): 8.6e-05 s⁻¹
- kon (soluble human ILT2-ECD [3]): 42000 M⁻¹ s⁻¹
- Kd (soluble human ILT4-ECD [4]): 0.76 nM
- koff (soluble human ILT4-ECD [4]): 2.8e-05 s⁻¹
- kon (soluble human ILT4-ECD [4]): 37000 M⁻¹ s⁻¹

Other lines, results leading:

- Kd (soluble human ILT2-ECD [5]): 1.8 nM
- koff (soluble human ILT2-ECD [5]): 0.00024 s⁻¹
- kon (soluble human ILT2-ECD [5]): 150000 M⁻¹ s⁻¹
- Kd (soluble human ILT4-ECD [6]): 0.74 nM
- koff (soluble human ILT4-ECD [6]): 0.0003 s⁻¹
- kon (soluble human ILT4-ECD [6]): 400000 M⁻¹ s⁻¹
- Kd (soluble human ILT2-ECD [3]): 1.2 nM
- koff (soluble human ILT2-ECD [3]): 6e-05 s⁻¹
- kon (soluble human ILT2-ECD [3]): 50000 M⁻¹ s⁻¹
- Kd (soluble human ILT4-ECD [4]): 0.18 nM
- koff (soluble human ILT4-ECD [4]): 5.4e-05 s⁻¹
- kon (soluble human ILT4-ECD [4]): 300000 M⁻¹ s⁻¹
- EC50 (read off the curve) [7]: ~0.7 nM
- EC50 (read off the curve) [8]: ~0.9 nM
- binding result (human ILT4 on cells): binds
B3: anti-ILT2/ILT4 antibody 73D1 (antibody, V domains shown)
VH: B1 VH with M34I, E46Q, N55D, S59T
VL: B1 VL
notes: Mouse hybridoma antibody; Shares its light chain variable region with 73C4

- Kd (soluble human ILT2-ECD [9]): 1.6 nM
- koff (soluble human ILT2-ECD [9]): 0.00014 s⁻¹
- kon (soluble human ILT2-ECD [9]): 93000 M⁻¹ s⁻¹
- Kd (soluble human ILT4-ECD [10]): < 0.1 nM
- koff (soluble human ILT4-ECD [10]): ~1e-05 s⁻¹
- kon (soluble human ILT4-ECD [10]): 300000 M⁻¹ s⁻¹
B6: humanized anti-ILT2/ILT4 antibody Hz64A12 (antibody, human IgG1, kappa, N297G, V domains shown)
VH: EVQLVESGGGLVQPGGSLRLSCAASGFTFNTYAMHWVRQAPGKGLEWVARIRSKSSNYATYYADSVKDRFTISRDDAKNSLYLQMNSLRAEDTAVYYCARDGIYYYDTMYYYAMDYWGQGTLVTVSS
VL: NIVLTQSPDSLAVSLGERATINCRASESVDYYGNSFIYWYQQKPGQPPKLLIYFASNLESGVPDRFSGSGSGTDFTLTISSLQAEDVAVYYCQQNNEDPWTFGGGTKVEIKR
notes: Human IgG1 constant region with G at position 297, human kappa

- Kd (soluble human ILT2-ECD [5]): 4 nM
- koff (soluble human ILT2-ECD [5]): 0.0009 s⁻¹
- kon (soluble human ILT2-ECD [5]): 230000 M⁻¹ s⁻¹
- Kd (soluble human ILT4-ECD [6]): 2 nM
- koff (soluble human ILT4-ECD [6]): 0.00018 s⁻¹
- kon (soluble human ILT4-ECD [6]): 87000 M⁻¹ s⁻¹
B7: humanized anti-ILT2/ILT4 antibody Hz47H6.v2 (antibody, human IgG1, kappa, N297G, V domains shown)
VH: QVQLVQSGAEVKKPGASVKVSCKASGYTFTDYYMNWVRQAPGQRLEWIGDFNPNNAGTTYNQKFEGRVTITVDKSASTAYMELSSLRSEDTAVYYCARGRFYYGSLYSFDYWGQGTLVTVSS
VL: DIQMTQSPSSLSASVGDRVTITCRASGNIHNYLAWYQQKPGKAPKLLIYNAKTLADGVPSRFSGSGSGTDFTLTISSLQPEDFATYYCQHFWTSITFGPGTKVDIKR
